B1: LINE1-full (parent)
chain: UACGUAGGUGGUUUUCCCCUGAUAGUGCUAAGGGGGCCUGGAAGUUUGGACUGGGCAGAGCUCAACACAGCGUGGCAAAGUGGCUGUGGCUAGACUGCCUCUCUGGAUUCCUCGUCACUCAGCAGGGCAUCUCUGAGAGAAAUGCC

In this data set the parent is B1. Put plainly: self-cleavage, relative activity (ratio to wild type); higher = more cleavage; in vitro, sequencing; the parent is a self-cleaving ribozyme.
For UACGUAGGUGGUUUUCCCCUGAUAGUGCUAAGGGGGCCUGGAAGUUUGGACUGGGCAGAGCUCAACAUAGCGUGGCAAAGUGGCUGUGGCUAGACUGCCUCUCUGGAUUCCUCGUCACUCAGCAGGGCAUCUCUGGGAGAAAUGCC [C68U A136G], the self-cleavage came out at 0.36. Consider UACGUAGGUGGUUUUCCCCUGAUAGUGCUAAGGGGGCCUGGAAGUUUGGACUGGGCAGAGCUCAACACCGCGUGGCAAAGUGGCUGUGGCUAGACUGCCUCUCUGGAUUCCUCGUCACUCAGCAGGGCAUCUCCGAGAGAAAUGCC [A69C U134C], for which the self-cleavage is 0.03. Then UACGUAGGUGGUUUUCCCCUGAUAGUGCUAAGGGGGCCUGGAAGUUUGGACUGGGCAGAGCUCAACACCGCGUGGCAAAGUGGCUGUAGCUAGACUGCCUCUCUGGAUUCCUCGUCACUCAGCAGGGCAUCUCUGAGAGAAAUGCC [A69C G88A], with 0.01; and UACGUAGGUGGUUUUCCCCUGAUAGUGCUAAGGGGGCCUGGAAGUUUGGACUGGGCAGAGCUCAACACCGCGUGGCAAAGUGGCUGUGGCUAGACUGCCUCUCUGGAUUCCUCGUCACUCAGCAGGGCAUAUCUGAGAGAAAUGCC [A69C C131A], with 0.09.

Regarding UACGUAGGUGGUUUUCCCCUGAUAGUGCUAAGGGGGCCUGGAAGUUUGGACUGGGCAGAGCUCAACAUAGCGUGGCAAAGUGGCUGUGGCUAGACUGCCUCUCUGGAUUCCUCGUCACUCAGCAGGGCAUCUCUGAGAGAAAUGCC [C68U], the self-cleavage came out at 0.13. Then UACGUAGGUGGUUUUCCCCUGAUAGUGCUAAGGGGGCCUGGAAGUUUGGACUGGGCAGAGCUCAACAGAGCGUGGCAAAGUGGCUGUGGCUAGACUGCCUCUCUGGAUUCCUCGUCACUCAGCAGGGCAUCUCUGAGAGAAAUGCC [C68G], with 0.05; and UACGUAGGUGGUUUUCCCCUGAUAGUGCUAAGGGGGCCUGGAAGUUUGGACUGGGCAGAGCUCAACACCGCGUGGCAAAGUGGCUGUGGCUAGACUGCCUCUCUGGAUUCCUCGUCACUCGGCAGGGCAUCUCUGAGAGAAAUGCC [A69C A121G], with 0.11; and UACGUAGGUGGUUUUCCCCUGAUAGUGCUAAGGGGGCCUGGAAGUUUGGACUGGGCAGAGCUCAACACCGCGUGGCAAAGUGGCUGUGGCUAGACUGCCUCUCUGGAUUCCUCGUCACUCUGCAGGGCAUCUCUGAGAGAAAUGCC [A69C A121U], with 0.04. To UACGUAGGUGGUUUUCCCCUGAUAGUGCUAAGGGGGCCUGGAAGUUUGGACUGGGCAGAGCUCAACAUAGCGUGGCAAAGUGGCUGUGGCUAGACCGCCUCUCUGGAUUCCUCGUCACUCAGCAGGGCAUCUCUGAGAGAAAUGCC [C68U U96C] belongs 0.04; to UACGUAGGUGGUUUUCCCCUGAUAGUGCUAAGGGGGCCUGGAAGUUUGGACUGGGCAGAGCUCAACAUAGCGUGGCAAAGUGGCUGUGGCUAGACUGCCUCUCUGGAUUCCUCGUCACUCAGCAGGGCAUCCCUGAGAGAAAUGCC [C68U U132C], 0.25. To UACGUAGGUGGUUUUCCCCUGAUAGUGCUAAGGGGGCCUGGAAGUUUGGACUGGGCAGAGCUCAACACCGCGUGGCAAAGCGGCUGUGGCUAGACUGCCUCUCUGGAUUCCUCGUCACUCAGCAGGGCAUCUCUGAGAGAAAUGCC [A69C U81C] belongs 0.

On to UACGUAGGUGGUUUUCCCCUGAUAGUGCUAAGGGGGCCUGGAAGUUUGGACUGGGCAGAGCUCAACAUAGCGUGGCAAAGUGGCUGUGGCUAGACUGCCUCUCUGGAUUCCUCGUCACUCAGCAGGGCAUCUCUGAGAGAAACGCC [C68U U143C], for which the self-cleavage was 0.22.

In the case of UACGUAGGUGGUUUUCCCCUGAUAGUGCUAAGGGGGCCUGGAAGUUUGGACUGGGCAGAGCUCAACACGGCGUGGCUAAGUGGCUGUGGCUAGACUGCCUCUCUGGAUUCCUCGUCACUCAGCAGGGCAUCUCUGAGAGAAAUGCC [A69G A77U], the self-cleavage amounted to 0.58. Then UACGUAGGUGGUUUUCCCCUGAUAGUGCUAAGGGGGCCUGGAAGUUUGGACUGGGCAGAGCUCAACACGGCGUGGCCAAGUGGCUGUGGCUAGACUGCCUCUCUGGAUUCCUCGUCACUCAGCAGGGCAUCUCUGAGAGAAAUGCC [A69G A77C], with 0.61. To UACGUAGGUGGUUUUCCCCUGAUAGUGCUAAGGGGGCCUGGAAGUUUGGACUGGGCAGAGCUCAACACGGCGUGGCGAAGUGGCUGUGGCUAGACUGCCUCUCUGGAUUCCUCGUCACUCAGCAGGGCAUCUCUGAGAGAAAUGCC [A69G A77G] belongs 0.6. Then UACGUAGGUGGUUUUCCCCUGAUAGUGCUAAGGGGGCCUGGAAGUUUGGACUGGGCAGAGCUCAACAUAGCGUGGCAAAGUGGCAGUGGCUAGACUGCCUCUCUGGAUUCCUCGUCACUCAGCAGGGCAUCUCUGAGAGAAAUGCC [C68U U85A], with 0.03.

Consider UACGUAGGUGGUUUUCCCCUGAUAGUGCUAAGGGGGCCUGGAAGUUUGGACUGGGCAGAGCUCAACAUAGCGUGGCAAAGUGGCCGUGGCUAGACUGCCUCUCUGGAUUCCUCGUCACUCAGCAGGGCAUCUCUGAGAGAAAUGCC [C68U U85C], for which the self-cleavage worked out at 0.03. Take UACGUAGGUGGUUUUCCCCUGAUAGUGCUAAGGGGGCCUGGAAGUUUGGACUGGGCAGAGCUCAACAUAGCGUGGCAAAGUGGCUGUGGCUGGACUGCCUCUCUGGAUUCCUCGUCACUCAGCAGGGCAUCUCUGAGAGAAAUGCC [C68U A92G]: the self-cleavage was 0.05. To UACGUAGGUGGUUUUCCCCUGAUAGUGCUAAGGGGGCCUGGAAGUUUGGACUGGGCAGAGCUCAACAUAGCGUGGCAAAGUGGCUGUGGCUAGACUGCCUCUCUGGGUUCCUCGUCACUCAGCAGGGCAUCUCUGAGAGAAAUGCC [C68U A107G] belongs 0.12; to UACGUAGGUGGUUUUCCCCUGAUAGUGCUAAGGGGGCCUGGAAGUUUGGACUGGGCAGAGCUCAACAUAGCGUGGCAAAGUGGCUGUGGCUAGACUGCCUCUCUGGUUUCCUCGUCACUCAGCAGGGCAUCUCUGAGAGAAAUGCC [C68U A107U], 0.19. To UACGUAGGUGGUUUUCCCCUGAUAGUGCUAAGGGGGCCUGGAAGUUUGGACUGGGCAGAGCUCAACAUAGCGUGGCAAAGUGGCUGUGGCUAGACUGCCUCUCUGGAUUCCUCGUCACUCAGCAGGGCCUCUCUGAGAGAAAUGCC [C68U A129C] belongs 0.22; to UACGUAGGUGGUUUUCCCCUGAUAGUGCUAAGGGGGCCUGGAAGUUUGGACUGGGCAGAGCUCAACAUAGCGUGGCAAAGUGGCUGUGGCUAGACUGCCUCUCUGGAUUCCUCGUCACUCAGCAGGGCAUCUCUGAGGGAAAUGCC [C68U A138G], 0.17; to UACGUAGGUGGUUUUCCCCUGAUAGUGCUAAGGGGGCCUGGAAGUUUGGACUGGGCAGAGCUCAACACCGCGUGGUAAAGUGGCUGUGGCUAGACUGCCUCUCUGGAUUCCUCGUCACUCAGCAGGGCAUCUCUGAGAGAAAUGCC [A69C C76U], 0.08. To UACGUAGGUGGUUUUCCCCUGAUAGUGCUAAGGGGGCCUGGAAGUUUGGACUGGGCAGAGCUCAACAUAGCGUGGCAAAGUGGCUGUGGCUAGACUGCCUCUCAGGAUUCCUCGUCACUCAGCAGGGCAUCUCUGAGAGAAAUGCC [C68U U104A] belongs 0.03; to UACGUAGGUGGUUUUCCCCUGAUAGUGCUAAGGGGGCCUGGAAGUUUGGACUGGGCAGAGCUCAACAUGGCGUGGCAAAGUGGCUGUGGCUAGACUGCCUCUCUGGAUUCCUCGUCACUCAGCAGGGCAUCUCUGAGAGAAAUGCC [C68U A69G], 0.11; to UACGUAGGUGGUUUUCCCCUGAUAGUGCUAAGGGGGCCUGGAAGUUUGGACUGGGCAGAGCUCAACACGGCGUGGCAGAGUGGCUGUGGCUAGACUGCCUCUCUGGAUUCCUCGUCACUCAGCAGGGCAUCUCUGAGAGAAAUGCC [A69G A78G], 0.25.

As to UACGUAGGUGGUUUUCCCCUGAUAGUGCUAAGGGGGCCUGGAAGUUUGGACUGGGCAGAGCUCAACAGAGCGUGGCAAAGUGGCUGUGGCUAGACUGCCUCUCUGGAUUCCUCGUCACUCAGCAGGGCAUCUCGGAGAGAAAUGCC [C68G U134G], the self-cleavage amounted to 0.04. Then UACGUAGGUGGUUUUCCCCUGAUAGUGCUAAGGGGGCCUGGAAGUUUGGACUGGGCAGAGCUCAACACCGCGUGGCAGAGUGGCUGUGGCUAGACUGCCUCUCUGGAUUCCUCGUCACUCAGCAGGGCAUCUCUGAGAGAAAUGCC [A69C A78G], with 0.1; and UACGUAGGUGGUUUUCCCCUGAUAGUGCUAAGGGGGCCUGGAAGUUUGGACUGGGCAGAGCUCAACAUAGCGUGGCAAAGUGGCUGUGGCUAGACUGCCUCUCUGGAUUCCUCGUCACUCAGCAGGGCACCUCUGAGAGAAAUGCC [C68U U130C], with 0.19. Then UACGUAGGUGGUUUUCCCCUGAUAGUGCUAAGGGGGCCUGGAAGUUUGGACUGGGCAGAGCUCAACAUAGCGUGGCAAAGUGGCUGUGGCUAGACUGCCUCUCUGGAUUCCUCGUCACUCAGCAGGGCAUCUCAGAGAGAAAUGCC [C68U U134A], with 0.18; and UACGUAGGUGGUUUUCCCCUGAUAGUGCUAAGGGGGCCUGGAAGUUUGGACUGGGCAGAGCUCAACACCGCGUGGCAAAGUGGCCGUGGCUAGACUGCCUCUCUGGAUUCCUCGUCACUCAGCAGGGCAUCUCUGAGAGAAAUGCC [A69C U85C], with 0.03. Then UACGUAGGUGGUUUUCCCCUGAUAGUGCUAAGGGGGCCUGGAAGUUUGGACUGGGCAGAGCUCAACACCGCGUGGCAAAGUGGCUGUGGCUAGACUGCCUCUCUGGAUUCCUCGUCACUCAGCAGGGCAUCUCUGAGAGAGAUGCC [A69C A141G], with 0.07; and UACGUAGGUGGUUUUCCCCUGAUAGUGCUAAGGGGGCCUGGAAGUUUGGACUGGGCAGAGCUCAACACGGCGUGGCAAGGUGGCUGUGGCUAGACUGCCUCUCUGGAUUCCUCGUCACUCAGCAGGGCAUCUCUGAGAGAAAUGCC [A69G A79G], with 0.31; and UACGUAGGUGGUUUUCCCCUGAUAGUGCUAAGGGGGCCUGGAAGUUUGGACUGGGCAGAGCUCAACAUAGCGUGGCAUAGUGGCUGUGGCUAGACUGCCUCUCUGGAUUCCUCGUCACUCAGCAGGGCAUCUCUGAGAGAAAUGCC [C68U A78U], with 0.37. Consider UACGUAGGUGGUUUUCCCCUGAUAGUGCUAAGGGGGCCUGGAAGUUUGGACUGGGCAGAGCUCAACACCGCGUGGCAAAGUGACUGUGGCUAGACUGCCUCUCUGGAUUCCUCGUCACUCAGCAGGGCAUCUCUGAGAGAAAUGCC [A69C G83A], for which the self-cleavage was 0.02. With UACGUAGGUGGUUUUCCCCUGAUAGUGCUAAGGGGGCCUGGAAGUUUGGACUGGGCAGAGCUCAACACCGCGUGGCAAAGUGGCUGUGGCUAGACUGCCUCUCUGGAUUCCUCGUCACUCAGCAGGGCAUCUCUGAGAGAACUGCC [A69C A142C], the self-cleavage was determined as 0.13.

Take UACGUAGGUGGUUUUCCCCUGAUAGUGCUAAGGGGGCCUGGAAGUUUGGACUGGGCAGAGCUCAACAUAGCGUGGCAAAGUGGCUGUGGCUAGACUGCCUCUCUGGAUUCCUCGUCACUCAGCAGGGCAUCUCUAAGAGAAAUGCC [C68U G135A]: the self-cleavage turned out to be 0.22. Then UACGUAGGUGGUUUUCCCCUGAUAGUGCUAAGGGGGCCUGGAAGUUUGGACUGGGCAGAGCUCAACACCGCGUGGCAAAGUGGCUGUGGCUAGACUGCCUCUCUGGAUUCCUCGUCACUCAGCAGGGCAUCACUGAGAGAAAUGCC [A69C U132A], with 0.2. Then UACGUAGGUGGUUUUCCCCUGAUAGUGCUAAGGGGGCCUGGAAGUUUGGACUGGGCAGAGCUCAACACCGCGUGGCAAAGUGGCUGUGGCUAGACUGCCUCUCUGGAUUCCUCGUCACUCAGCAGGGCAUCCCUGAGAGAAAUGCC [A69C U132C], with 0.

These data come from the RNAGym collection of RNA variant scans (doi:10.7554/elife.90254).
